Results published in a protein production outcome set (Wang et al. 2014).

Assay: label from the status in PepcDB records

Sequence	protein production
MLSYPRYLAVFLLIIGQSCLAFAEEQPQVGQLFKLFDSGESMPRATIEQNIALLEKLISSDDIERIEKLNQIKCWNQASDTEEEIAKALNYAEQALSQIPSTASTHFITDINLCRAWFLQLTGDINGAMEGYTKSVQSAYEHEDIKLIADARSLRGALYSYTGDFSEALDDLVTAQGLYESLNLTGWANINLTDIATSFRRYGDPESAIKYYKKLKELYLKNGNKEQVANVMSEIGIALDEMGKHEQAIEHFRFSYQYFKDQKLNIVAAINATNIAYSLIQLNRLDEAENYLNEAAPDISENEPAAYSFMKLFMGKIRNQQGRYQEALDELSAAEHAFRVMHNDRGLIQLLQLKSDIYAAMEDLPQAYHILQEFIALTKKVDDSSIAHQTTELKVKFDTSWIESENKRLIDNQKLKEQELTLLEKNKSLQLIILLLTGCILATVSLFAYKQVHRNRQLQTIALTDYLTQLPNRRHIYAQAEQYFQLALKQQIPFSIIIFDADHFKKINDNFGHEIGDQALLTIAEASKTLTTDRNLVGRIGGEEFLILLPNTDADRAWKLAHELQTLITRFGAINLPVELKLTVSAGVATLPIQSELQDQNFARLLKRADNALYEAKNAGRNCVKAAEITG	failed
MKIVSIKIKNYRVFEDIKITNIPSFCVIIGANGTGKSTLFDVFGFLRDALKNNIRQALQIRGGFKEVVTRGKESEDIEIELKFRMEILATERLVTYILIIGQEGKKPVIKREILRYKRGEYGSPFHFLDFHNGQGYAIRNEESFESDEELEREEQKLESADILAIKGLGQFQRFKAANAIRSLIENWHVSDFHISDARGSKAALYAEHLSPTGDNIPIVAQYIYQEHPEIFAEILQRMKQRVPGISNVEAKEIEGGSLILKFQDQAFEDSFVDLYVSDGTIKMFAYLILLFDPKPHPLLCVEEPENQLYPTLLRELAEEFASYAHRGGQVFVSTHSPDFLNAVPLDSIFWLIKIQGVTKVEKAADHEVLRNLIAAGDLPGYLWNQGWFEGVAPLEHHHHHH	failed
MAKKKIVAVIQARMGSSRLPGKVLMTVAGKPLLEHIIDRLRRSRTLDDIVIATSDKPCDDPLVDFAQTRGVTLVRGSEDNVLLRFNKAAEEVDADVIIRVTGDAPLVDPEVMDRLVRTLLQEGAEYCTIEAGINSIHEGFCTFTRGALKRLMTEAPDDPVAIEHVTAYFIAHPDKFHIARIPVGNEHRFKGARLSVDTPADVQFFDELYRLLGVPAGDADIADVVRLLRNNPHLLQINQHVYQKKATDRSHKVLIRCDGDSRTGLGHVVRCLALAGELREKQGCGIIFAMASGEPGMKMVRQADFPLERQEDADEGEWMDGLISRHHPDVLILDIRNDLPVEKVDSWREDGILVVGIDDPTPRRLAADLLFYPPIPQISELNWNNFNGEICSGWEWVLLRKQFCAPCPPRNNNPPALLLTMGGSDPANFTVRVLRVLDELQNDFETIVVIGAGFVHEEDLQQFLSQARRHYRIEREVSDMASLMRQADLAIASFGVTAYELAASGVPAVYLCLTPDHARSASKFVDDRLAFSCGVLEECSNERIIESTLSLLDSRELRHEVGRRACATVDGYGATRIATKIVEKLERMHSSHGLEHHHHHH	failed
MIKSSSKIGLAFFVRPQFDVDLAKNFFNKVQDSLKEAGIATQVFELPVSTDAEALSLAESVNSHQDLHGLIVVQGTFCDASLILNLASNINLPIMIWATKEQPTGGRLSLNSFCGLNLGAHTLVNAGIKFKGVYGSPGSPAVIKKVTSFARAAGAVKWLKGKRIGLFGHRPSGYYPSNFNEILLRKQFGITVEYLSLSEVFSLAQKMEIKDIQPFINTLVGVEGLEMVSTSKSVQAYLALKELIAQKALDAVAVECWPEFMAGFGGAVCYALSRLNDEGIVAACEADVNGAVTMLLGSYLSSQANFIADLVGAEEEQNQLIFWHCGNGPLSLAAPGTNPVAGVHPNRKTPLAMYFPLKGGPVTVSRLSSDHNGNLRLFLGSGTGIETDLLYSGNSLPIQISGSVEETLDTILCEGIEHHYIVTYGDLTSEFREIAELLGLRMITFLEHHHHHH	failed
MVVKVINKKQDKFYFKLGMFILIFLILGVSLLNIIGINVDKTYENGNGMYAHIVDYSLPWVKVANNKNTSENTYSIKNIILSAAGLDINKPENVISKEVSFLGEALPKSIKSECPNESFTLDDKDVVKSTSGSVQNEPLKNINENIYDPKLKKALDKSKPEILIYHSHTTEAYKPYPADSLNSTQNVCAVGDELVKELGEKYGIYAINDKTVHNVVDYNKSYTRSGETLDKYLKQYGDFKMIIDMHRDSDVPKSKVTARINGEDVAKFMFVMTRKNPHFDKNMALVNGLVSICNKDFPGIFNGIYYYDYGINYYNQQKSNNAFLLEVGSDINTIDEAKGTSKYLARIIAEYLNGKK	failed
MTGRDLMLITGISPIILRFLFGGTAVVASRLVARSFGGRLGGVFAAFPAVYLAAVAGLSMEYEGSELLSVSEQLSRGALVGMSADICCALAASYLILKYGWKTGLSLSLLFWAVLAPVIYFTWF	failed
MTMETVESQHDGSITASLTESKSAHVQTQTGQNSIPALAQVAAIAETDESAESGGVIDSHKRREILSRRPSYRKILNELSSDVPGVPKIEEERSEEEGTPPSIATMAVPTSIYQTSTGQYIAIAQGGTIQISNPGSDGVQGLQALTMTNSGAPPPGATIVQYAAQSADGTQQFFVPGSQVVVQAATGDMPTYQIRAPTAALPQGVVMAASPGSLHSPQQLAEEATRKRELRLMKNREAAKECRRRKKE	not failed
MRGGGILDYIGYFLVAIIVIFVVVKLLEWPIKMLVKLIINGVIGAIMLFALNIFGKYIGISIGINIVTALIAGIFGIPGVIFLVILKFIM	failed
MPQGCDRPSHGLRLADEQGRCQIKFVASDSPAEQAGLMIGDEIVALNGLRVSADNFSRRLATYQAGQVLELTIFHDDQLQSFSLTLAEPQPQSYNLRPAATVTSLEHHHHHH	failed
MPLASGQVFAGFTIVRLVGTGGMGEVYLAKHPRLPREDALKVLPISVSADDEFRQRFIREADMAATLWHPHIVGVHDRGEFEGRLWISMDYVDGHDAARLLHDKYPKGMPADDVVEIVTAVGDALDYAHQRQLLHRDVKPANILVTEKHGTKRRIMLTDFGIARRTDDVNGLTSTNITVGSMSYTSPEQLMGQPLDGRADQYSLAATAYRLLTGAPPFSHSNPAVVISHHLNSPPPKLGDTKPALAKLDSVMAKALAKDAKDRFDTCHDFAVALAEANKGDESAAPVTAAPPPVITPPVQTAPPTTPLKAQTLPAPPTPPTPLSPSNPQAPTASQPPVFTSSWAGHDDPSGRQPVAVPAPAPPPPPPPSNFGPPPPAYSPPPRKSGGDRRKLIIAAAAIGAVVLLVGGITLAVTSGGDNDSAGAAATTSETASETPVTTTPKKPGEHAYTIADYIRDNKISETPVHRGDPNTPELTMPTPPGWADAGTRTPAWAYSAIVNDPASPTDPPSVISLISKLDGNVDPEKLLEFAPNELQNLTEWEPIGGVTRSNLSGFPSVQLGGSYLKDGKRRAITQKTVVVDIPSGIYVLQINADSLYRDFGALVDVNKAIDKEATIKP	failed
MFKDKKMLKYIVIYSIIAFGILLTFNMVKDEMLYEKVDYSTFMQMLDKKEVKSVNFSGNQIEITPSDSSNLKGKILYTTNPAVAGITQPDLIKDLTAAGVGFNVTKPENYQLLGLLMSWVFPLILIFFVGRMMFSKMNNKMGGGVMSFGKNNAKLYAENETGITFKDVAGQDEAKESLVEIVDFLHDTRKYVEIGAKLPKGALLVGPPGTGKTLLAKAVAGEAKVPFFSMSGSDFVEMFVGMGAARVRDLFKQAEEKAPCIVFIDEIDAIGKSRDGAIQGNDEREQTLNQLLTEMDGFDSSKGVVILAATNRPEVLDKALLRPGRFDRRIIVDRPDLIGREEILKVHSRDVKLSDDVSLEEIAKSTPGAVGADLANIVNEAALRAVKHGRKFVIQEDLDEAVEVIIAGQEKRDRILSPKEKKIVAYHEVGHALVAALLNNTDPVHKITIVPRTMGALGYTMQLPEEEKYLVSKEEMIDQISVMLGGRAAEEVVFNSITTGASNDIERATQSARNMITIYGMSERFDMMALEAMSNRYLDGRPVRNCSETTAAIADEEVLQVIKKAHEKSIKILIENRELLDEITGVLLDKETIMGDEFMEIVYSKYPEKREADEKAKKEIQSLREQALAKRKEKEEAIKKAREEALRLEEEQRKQAELKAMIEAQEEAAKLARANNEANNDDLDSSKENEEVKSNVNDRATEEKKDDSSTNNKVDGE	failed
